Laboratory results reported in ChEMBL document CHEMBL1150442, “Synthesis and creatine kinase inhibitory activity of non-hydrolyzable analogs of phosphocreatine” (Bioorg Med Chem Lett, 1997).

Test system: CN(CC(=O)O)C(=N)NP(=O)(O)O
Assay: Compound was tested for inhibition against Creatine kinase(CK)
Conditions: Oryctolagus cuniculus

Sequence of Creatine kinase M-type (Homo sapiens), P06732 (P06732 whole entry): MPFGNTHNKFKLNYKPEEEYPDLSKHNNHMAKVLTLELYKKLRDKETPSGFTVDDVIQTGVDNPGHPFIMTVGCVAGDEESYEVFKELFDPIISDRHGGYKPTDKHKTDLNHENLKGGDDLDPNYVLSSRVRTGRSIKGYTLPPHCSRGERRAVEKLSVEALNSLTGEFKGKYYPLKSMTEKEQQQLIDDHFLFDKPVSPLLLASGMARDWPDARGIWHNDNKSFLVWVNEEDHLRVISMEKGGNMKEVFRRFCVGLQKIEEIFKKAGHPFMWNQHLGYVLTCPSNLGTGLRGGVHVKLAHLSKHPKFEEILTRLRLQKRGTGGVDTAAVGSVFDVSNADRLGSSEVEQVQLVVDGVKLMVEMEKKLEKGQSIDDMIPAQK

With “Creatine kinase M-type (Homo sapiens), P06732” the Km was 2500 µM.
